No end group written: not given here.
B1: CCNB1 303-317 (peptide)
peptide: LHFLRRASKIGEVDV-NH2
B2: CCNB1 199-213 (peptide)
peptide: GNMRAILIDWLVQVQ-NH2
B3: CCNB1 202-216 (peptide)
peptide: RAILIDWLVQVQMKF-NH2
B4: CCNB1 216-230 (peptide)
peptide: FRLLQETMYMTVSII-NH2
B5: CCNB1 225-239 (peptide)
peptide: MTVSIIDRFMQNNCV-NH2
B6: CCNB1 363-377 (peptide)
peptide: PTLQHYLSYTEESLL-NH2
B7: CCNB1 244-258 (peptide)
peptide: LQLVGVTAMFIASKY-NH2
B8: CCNB1 237-251 (peptide)
peptide: NCVPKKMLQLVGVTA-NH2
B9: CCNB1 275-289 (peptide)
peptide: NTYTKHQIRQMEMKI-NH2
B10: CCNB1 87-101 (peptide)
peptide: PMLVPVPVSEPVPEP-NH2

molecular target: T1, HLA-DR7 (HLA-DRB1*07:01) (human); experiment: competition ELISA vs biotin-YKL
T1 construct: mature; purified from homozygous EBV-transformed lymphoblastoid cells with antibody L243

Q: For B1, which relative affinity is on record?
A: Its relative affinity is 849.

molecular target: T2, HLA-DRB4 (HLA-DRB4*01:01) (human); experiment: competition ELISA vs biotin-E2/E168
T2 construct: mature; purified from homozygous EBV-transformed lymphoblastoid cells with antibody L243

Q: Which relative affinity does the source give for B2 here?
A: The relative affinity was 9.

Q: For B3, which relative affinity is on record?
A: Its relative affinity is 20.

Q: B4 was tested. Which relative affinity did it give?
A: The relative affinity was 22.

Q: With B5 as the binder, how does the relative affinity read?
A: Its relative affinity is 6.

Q: With B6 as the binder, how does the relative affinity read?
A: Its relative affinity is 5.

Q: With B7 as the binder, how does the relative affinity read?
A: The relative affinity was 98.

molecular target: T3, HLA-DR11 (HLA-DRB1*11:01) (human); experiment: competition ELISA vs biotin-HA 306-318;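 also: HLA and competitor incubated 24 to 72 h, maximal signal taken from wells lacking competitor, background from wells lacking HLA molecule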
T3 construct: mature; purified from homozygous EBV-transformed lymphoblastoid cells with antibody L243

Q: Which relative affinity does the source give for B8 here?
A: Its relative affinity is 87.

Q: How did the relative affinity turn out when B9 was run?
A: The relative affinity was 4.

molecular target: T4, HLA-DRB5 (HLA-DRB5*01:01) (human); experiment: competition ELISA vs biotin-HA 306-318;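 also: HLA and competitor incubated 24 to 72 h, maximal signal taken from wells lacking competitor, background from wells lacking HLA molecule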
T4 construct: mature; purified from homozygous EBV-transformed lymphoblastoid cells with antibody L243

Q: B9 was tested. Which relative affinity did it give?
A: Its relative affinity is 50.

molecular target: T5, HLA-DR1 (HLA-DRB1*01:01) (human); experiment: competition ELISA vs biotin-HA 306-318;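 also: HLA and competitor incubated 24 to 72 h, maximal signal taken from wells lacking competitor, background from wells lacking HLA molecule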
T5 construct: mature; class II HLA molecule purified from homozygous EBV-transformed lymphoblastoid cells with antibody L243

Q: With B10 as the binder, how does the relative affinity read?
A: The relative affinity was 1500.

Q: For B8, which relative affinity is on record?
A: The relative affinity was 4.

molecular target: T6, HLA-DR4 (HLA-DRB1*04:01) (human); experiment: competition ELISA vs biotin-HA 306-318;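 also: HLA and competitor incubated 24 to 72 h, maximal signal taken from wells lacking competitor, background from wells lacking HLA molecule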
T6 construct: mature; purified from homozygous EBV-transformed lymphoblastoid cells with antibody L243

Q: With B10 as the binder, how does the relative affinity read?
A: Its relative affinity is 96.

Q: B9 was tested. Which relative affinity did it give?
A: The relative affinity was 456.

molecular target: T7, HLA-DR13 (HLA-DRB1*13:01) (human); experiment: competition ELISA vs biotin-B1 21-36
T7 construct: mature; purified from homozygous EBV-transformed lymphoblastoid cells with antibody L243

Q: With B9 as the binder, how does the relative affinity read?
A: Its relative affinity is 158.

molecular target: T3, HLA-DR11 (HLA-DRB1*11:01); experiment: competition ELISA vs biotin-HA 306-318; remark: another data set of the same source

Q: Which relative affinity does the source give for B1 here?
A: Its relative affinity is 1.

molecular target: T4, HLA-DRB5 (HLA-DRB5*01:01); experiment: competition ELISA vs biotin-HA 306-318; remark: another data set of the same source

Q: Which relative affinity does the source give for B1 here?
A: The relative affinity was 1330.

molecular target: T5, HLA-DR1 (HLA-DRB1*01:01); experiment: competition ELISA vs biotin-HA 306-318; remark: another data set of the same source

Q: How did the relative affinity turn out when B1 was run?
A: Its relative affinity is 495.

molecular target: T6, HLA-DR4 (HLA-DRB1*04:01); experiment: competition ELISA vs biotin-HA 306-318; remark: another data set of the same source

Q: With B1 as the binder, how does the relative affinity read?
A: The relative affinity was 1390.

molecular target: T8, HLA-DRB3 (HLA-DRB3*01:01) (human); experiment: competition ELISA vs biotin-LOL 191-210
T8 construct: mature; purified from homozygous EBV-transformed lymphoblastoid cells with antibody L243

Q: B2 was tested. Which relative affinity did it give?
A: The relative affinity was 9.

Q: For B3, which relative affinity is on record?
A: The relative affinity was 2.

Q: With B4 as the binder, how does the relative affinity read?
A: Its relative affinity is 11.

Q: With B5 as the binder, how does the relative affinity read?
A: Its relative affinity is 9.

Q: For B6, which relative affinity is on record?
A: The relative affinity was 11.

Q: Which relative affinity does the source give for B7 here?
A: Its relative affinity is 267.

molecular target: T7, HLA-DR13 (HLA-DRB1*13:01); experiment: competition ELISA vs biotin-B1 21-36; remark: another data set of the same source

Q: How did the relative affinity turn out when B1 was run?
A: Its relative affinity is 1.

molecular target: T9, HLA-DR15 (HLA-DRB1*15:01) (human); experiment: competition ELISA vs biotin-A3 152-166
T9 construct: mature; purified from homozygous EBV-transformed lymphoblastoid cells with antibody L243

Q: B1 was tested. Which relative affinity did it give?
A: The relative affinity was 17.

molecular target: T10, HLA-DP401 (HLA-DPB1*04:01) (human, UniProt P20036 29-222); experiment: competition ELISA vs biotin-Oxy 271-287;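 also: plates incubated 24–72 h, maximum binding defined by wells lacking competitor, background by wells lacking HLA molecule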
T10 construct: mature; purified from homozygous EBV-transformed lymphoblastoid cells with antibody B7/21

Q: Which relative affinity does the source give for B2 here?
A: Its relative affinity is 36.

Q: B3 was tested. Which relative affinity did it give?
A: The relative affinity was 47.

Q: B4 was tested. Which relative affinity did it give?
A: The relative affinity was 2.

Q: For B5, which relative affinity is on record?
A: The relative affinity was 72.

Q: For B6, which relative affinity is on record?
A: Its relative affinity is 22.

Q: Which relative affinity does the source give for B7 here?
A: The relative affinity was 77.

molecular target: T11, HLA-DP402 (HLA-DPB1*04:02) (human, UniProt P20036 29-222); experiment: competition ELISA vs biotin-Oxy 271-287;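 also: plates incubated 24–72 h, maximum binding defined by wells lacking competitor, background by wells lacking HLA molecule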
T11 construct: mature; purified from homozygous EBV-transformed lymphoblastoid cells with antibody B7/21

Q: How did the relative affinity turn out when B2 was run?
A: The relative affinity was 24.

Q: With B3 as the binder, how does the relative affinity read?
A: Its relative affinity is 14.

Q: For B4, which relative affinity is on record?
A: The relative affinity was 1.

Q: B5 was tested. Which relative affinity did it give?
A: The relative affinity was 35.

Q: With B6 as the binder, how does the relative affinity read?
A: Its relative affinity is 50.

Q: How did the relative affinity turn out when B7 was run?
A: The relative affinity was 32.

molecular target: T1, HLA-DR7 (HLA-DRB1*07:01); experiment: competition ELISA vs biotin-YKL; remark: another data set of the same source

Q: Which relative affinity does the source give for B2 here?
A: Its relative affinity is 10.

Q: With B3 as the binder, how does the relative affinity read?
A: Its relative affinity is 9.

Q: B4 was tested. Which relative affinity did it give?
A: Its relative affinity is 0.5.

Q: Which relative affinity does the source give for B5 here?
A: The relative affinity was 5.

Q: Which relative affinity does the source give for B6 here?
A: Its relative affinity is 1.

Q: With B7 as the binder, how does the relative affinity read?
A: Its relative affinity is 1.

molecular target: T1, HLA-DR7 (HLA-DRB1*07:01); experiment: competition ELISA vs biotin-YKL; remark: another data set of the same source

Q: How did the relative affinity turn out when B10 was run?
A: Its relative affinity is 231.

Q: For B9, which relative affinity is on record?
A: Its relative affinity is 43.

molecular target: T12, HLA-DR3 (HLA-DRB1*03:01) (human); experiment: competition ELISA vs biotin-MT 2-16
T12 construct: mature; purified from homozygous EBV-transformed lymphoblastoid cells with antibody L243

Q: Which relative affinity does the source give for B1 here?
A: Its relative affinity is 3.

molecular target: T9, HLA-DR15 (HLA-DRB1*15:01); experiment: competition ELISA vs biotin-A3 152-166; remark: another data set of the same source

Q: How did the relative affinity turn out when B2 was run?
A: Its relative affinity is 1.

Q: With B3 as the binder, how does the relative affinity read?
A: The relative affinity was 4.

Q: Which relative affinity does the source give for B4 here?
A: Its relative affinity is 3.

Q: How did the relative affinity turn out when B5 was run?
A: Its relative affinity is 2.

Q: Which relative affinity does the source give for B6 here?
A: Its relative affinity is 1.

Q: With B7 as the binder, how does the relative affinity read?
A: The relative affinity was 1.

molecular target: T2, HLA-DRB4 (HLA-DRB4*01:01); experiment: competition ELISA vs biotin-E2/E168; remark: another data set of the same source

Q: For B10, which relative affinity is on record?
A: The relative affinity was 748.

Q: With B8 as the binder, how does the relative affinity read?
A: The relative affinity was 1400.

Q: With B9 as the binder, how does the relative affinity read?
A: The relative affinity was 80.

molecular target: T12, HLA-DR3 (HLA-DRB1*03:01); experiment: competition ELISA vs biotin-MT 2-16; remark: another data set of the same source

Q: For B2, which relative affinity is on record?
A: The relative affinity was 1.

Q: Which relative affinity does the source give for B3 here?
A: Its relative affinity is 1.

Q: With B4 as the binder, how does the relative affinity read?
A: Its relative affinity is 1.

Q: B5 was tested. Which relative affinity did it give?
A: Its relative affinity is 1.

Q: Which relative affinity does the source give for B6 here?
A: Its relative affinity is 1.

Q: With B7 as the binder, how does the relative affinity read?
A: Its relative affinity is 9.

molecular target: T9, HLA-DR15 (HLA-DRB1*15:01); experiment: competition ELISA vs biotin-A3 152-166; remark: another data set of the same source

Q: With B10 as the binder, how does the relative affinity read?
A: Its relative affinity is 134.

Q: How did the relative affinity turn out when B8 was run?
A: Its relative affinity is 65.

Q: With B9 as the binder, how does the relative affinity read?
A: Its relative affinity is 85.

molecular target: T3, HLA-DR11 (HLA-DRB1*11:01); experiment: competition ELISA vs biotin-HA 306-318; remark: another data set of the same source

Q: Which relative affinity does the source give for B2 here?
A: The relative affinity was 77.

Q: B3 was tested. Which relative affinity did it give?
A: The relative affinity was 400.

Q: Which relative affinity does the source give for B4 here?
A: The relative affinity was 14.

Q: Which relative affinity does the source give for B5 here?
A: The relative affinity was 31.

Q: For B6, which relative affinity is on record?
A: Its relative affinity is 45.

Q: With B7 as the binder, how does the relative affinity read?
A: The relative affinity was 23.

molecular target: T4, HLA-DRB5 (HLA-DRB5*01:01); experiment: competition ELISA vs biotin-HA 306-318; remark: another data set of the same source

Q: For B2, which relative affinity is on record?
A: Its relative affinity is 58.

Q: Which relative affinity does the source give for B3 here?
A: Its relative affinity is 55.

Q: B4 was tested. Which relative affinity did it give?
A: Its relative affinity is 50.

Q: Which relative affinity does the source give for B5 here?
A: The relative affinity was 79.

Q: How did the relative affinity turn out when B6 was run?
A: Its relative affinity is 24.

Q: B7 was tested. Which relative affinity did it give?
A: The relative affinity was 1.

molecular target: T5, HLA-DR1 (HLA-DRB1*01:01); experiment: competition ELISA vs biotin-HA 306-318; remark: another data set of the same source

Q: How did the relative affinity turn out when B2 was run?
A: Its relative affinity is 27.

Q: How did the relative affinity turn out when B3 was run?
A: Its relative affinity is 1220.

Q: Which relative affinity does the source give for B4 here?
A: Its relative affinity is 7.

Q: For B5, which relative affinity is on record?
A: The relative affinity was 24.

Q: Which relative affinity does the source give for B6 here?
A: Its relative affinity is 28.

Q: For B7, which relative affinity is on record?
A: The relative affinity was 2.

molecular target: T6, HLA-DR4 (HLA-DRB1*04:01); experiment: competition ELISA vs biotin-HA 306-318; remark: another data set of the same source

Q: With B2 as the binder, how does the relative affinity read?
A: Its relative affinity is 56.

Q: For B3, which relative affinity is on record?
A: Its relative affinity is 59.

Q: Which relative affinity does the source give for B4 here?
A: Its relative affinity is 2.

Q: How did the relative affinity turn out when B5 was run?
A: Its relative affinity is 100.

Q: B6 was tested. Which relative affinity did it give?
A: The relative affinity was 76.
